Results published in patent US20050170451A1.

Columns and labels:
[1] = molecular target: soluble fragment of human IgE receptor (FcεRI) α chain (human) (UniProt P12319); test: competition ELISA: inhibition of binding of biotin-labeled FcεRI α chain (55 ng/mL) to immobilized human IgE, at scFv >= 100 µg/ml
[2] = molecular target: soluble fragment of human IgE receptor (FcεRI) α chain (human) (UniProt P12319); test: SPR (BIAcore), purified scFv
[3] = molecular target: soluble fragment of human IgE receptor (FcεRI) α chain (human) (UniProt P12319); test: competition ELISA: inhibition of binding of biotin-labeled FcεRI α chain (55 ng/mL) to immobilized human IgE

Sequence of UniProt P12319 (P12319 26-197 limits assumed): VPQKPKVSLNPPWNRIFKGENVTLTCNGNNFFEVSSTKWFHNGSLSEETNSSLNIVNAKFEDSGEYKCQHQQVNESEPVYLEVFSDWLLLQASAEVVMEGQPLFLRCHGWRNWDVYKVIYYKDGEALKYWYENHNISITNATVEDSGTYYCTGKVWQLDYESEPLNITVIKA

- inhibition rate [1]: > 90%
- Kd [2]: 5.8 nM
- scFv concentration at which inhibition is seen [3]: > 0.1 µg/mL
B1: αFcR51 scFv (human anti-human FcεRI α chain single-chain Fv clone) (scFv, part only; not given: VH-VL linker and E tag, V domains shown, not shown: another chain or arm of the molecule; small tags and cut ends)
VH: QVQLQEWGGGLVQPGGSLRLSCAASGFTVSSNYMSWVRQAPGKGLEWVSVIYRGGSGDNTYYAGSVKGRFTISRDNSKNTVYLQMNSLRAEDTAVYYCVRSSDVGYGILRGYMDVWGKGTTVTVSS
VL: HVILTQPPSVSVSPGQTARIPCSGQDLTNKYVSWYQLQSGQSPALVIYEDSKRPSGIPERFSGSNSGDTATLTITGTQAADEADFFCQAYDTNGWVFGAGTKLTVL
